Source: publication PMC11637481, “A third dose of inactivated vaccine augments the potency, breadth, and duration of anamnestic responses against SARS-CoV-2” (Protein & Cell, 2024)

B1: XGv016 (antibody, V domains shown)
VH: QVQLVQSGTEVRKPGASVTVSCKASGYTFTTYHMHWVRRAPGQGLEWMGIIDPGTGGASYPQKFRGRVTLTRDTSTNTVYMELSSLRFQDTAIYYCARAEGSSWLGWFDPWGQGTLVTVSS
VL: QSVLTQPPSASGTPGQRVSISCSGSSSNIGTNYVYWYQQLPGTAPKLLIYKNNQRPSGVPDRFSGSKSGTSASLAISGLRSEDEADYFCASWDNGLSGSGWVFGGGTKLTV
B2: XGv038 (antibody, V domains shown)
VH: QVQLVESGGGVVQPGRSLRLSCAASGFTFNNYGIHWVRQAPGKGLEWVAVIWYDGTNKYYADSVKGRFTISRDNSKNTVYLQMNSLRAEDTAVYYCARDYEITMAAPDYWGQGTLVTVSS
VL: DVVMTQSPLSLPVTLEQPASISCRSSQSLVSSDGNTYLNWFQQRPGQSPRRLIYKVSNRDSGVPDRFSGSGSGTDFTLKINRVEAEDVGIYYCMQGSHWPPTFGGGTKVEIK
B3: XGv042 (antibody, V domains shown)
VH: QITLKESGPTLVKPTQTLTLTCTFSGLSMTTSGVGVGWIRQPPGKALEWLALIYWDDDKRYSPFLKSRLTITKDTSKNQVVLTMTNMDPADTGTYFCAHHTIPSIFDHWGQGTLVTVSS
VL: QSALTQPASVSGSPGQSITISCTATSSDVGVYNYVSWYQQYPGKAPRLIIFEVSNRPSGVSSRFSGSKSGYTASLTISGLQTDDEADYYCSSYTTTSTVFGGGTKLTVL
B4: XGv026 (antibody, V domains shown)
VH: EVQLVESGGGVIQPGGSLRLSCAASEIIVSSNYMNWVRQAPGKGLEWVSVIYPGGSSFYADSVKGRFTISRDNSKNTLYLQMNSLRVEDTAVYYCARDSPHRPGTIWGQGTLVVVSS
VL: DIQMTQSPSSLSASVGDRVTITCRASQDINNYLNWYQQKPGKAPKLLIYDAFTLEAGVPSRFSGARFGTDFTFTISSLQPEDIATYYCHQCDNLPCTFGGGTKVEIK
B5: XGv030 (antibody, V domains shown)
VH: EVQLVESGGGLVQPGGSLRLSCAASGFSFSTYSLNWVRQAPGKGLEWVSYISSSSITIYYAHSVKGRFTISRDDAKNSLYLQVNNLRDEDTAVYYCARVLGFSDYVWGSYQRGLYGMDVWGQGTTVSVSS
VL: QSALTQPASVSGSPGQSIAISCTGTSSDVGGYDFVSWYQQHPGKAPKLLIYDVTNRPSGISNRFSGSKSGNTASLTISGLQTEDEADYYCSSFTSSNTLPFVFGTGTTVTVL
B6: XGv018 (antibody, V domains shown)
VH: QVQLVESGGGVVQPGRSLRLSCAASGFTFSTYGMHWVRQAPGKGLEWVAVILNDGSGKLYADSVKGRFTISRDNSKNTLYLQMSSLRAEDTAVYFCARDQGELVTYFDYWGQGTLVTVSS
VL: DIQMTQSPSSLSASVGDRVTITCRASQSISRYLNWYQHKPGKAPKLLIYTTSNLQSGVPSRFSGSGSGTDFTLTISSLHPEDFATYYCQQSYNTPSWTFGQGTKVEIK
B7: XGv013 (antibody, V domains shown)
VH: EVQLVESGGGLVQPGGSLRLSCAASGITVSSNYMTWVRQAPGKGLEWVSVIYAGGSTFYADSVKGRFTISRDNSKNTLYLQMNSLRVEDTAVYYCARDLVDYGMDVWGQGTTVTVSS
VL: DIQLTQSPSFLSASVGDRVTITCRASQGIASYLAWYQQKPGKAPKLLIYAASTLQSGVPTRFSGSGSGTEFTLTIRSLQPEDSATYYCQHPSGHPPTFGGGTKVEI

These binders were tested against T1, SARS-CoV-2 receptor-binding domain (RBD), wild type (SARS-CoV-2, wild type (GenBank MN908947), UniProt P0DTC2) (assay: BLI). Details: both partners purified.
T1 construct: also called WT
Work on B1 yielded a Kd of 0.16 nM. With B2 the Kd was 0.43 nM. Work on B3 yielded a Kd of 0.16 nM. With B4 the Kd was 0.23 nM. With B5 the Kd was 1.3 nM. B6 was tested, and the Kd was 0.21 nM. In the case of B7, the Kd is reported as 0.26 nM.
